Laboratory results published in patent US20180155451A1 (published 2018).

B1: GpH7-A5/GpH7-B3 variant N325_15Y/GpL16-k0 (antibody, human IgG1, kappa)
heavy 1: not shown
heavy 2: not shown
light: DIVMTQSPLSLPVTPGEPASISCQASESLVHSNRNTYLHWYLQKPGQSPQLLIYKVSNRFSGVPDRFSGSGSGTDFTLKISRVEAEDVGVYYCSQNTHVPPTFGQGTKVEIERTVAAPSVFIFPPSDEQLKSGTASVVCLLNNFYPREAKVQWKVDNALQSGNSQESVTEQDSKDSTYSLSSTLTLSKADYEKHKVYACEVTHQGLSSPVTKSFNRGEC
notes: Heterodimerized IgG1; alteration in one H chain only; also called He Ab
B2: GpH7-A5/GpH7-B3 variant N325_19Q/GpL16-k0 (antibody, human IgG1, kappa)
heavy 1: not shown
heavy 2: not shown
light: DIVMTQSPLSLPVTPGEPASISCQASESLVHSNRNTYLHWYLQKPGQSPQLLIYKVSNRFSGVPDRFSGSGSGTDFTLKISRVEAEDVGVYYCSQNTHVPPTFGQGTKVEIERTVAAPSVFIFPPSDEQLKSGTASVVCLLNNFYPREAKVQWKVDNALQSGNSQESVTEQDSKDSTYSLSSTLTLSKADYEKHKVYACEVTHQGLSSPVTKSFNRGEC
notes: as for B1
B3: GpH7-A5/GpH7-B3 variant N325_20W/GpL16-k0 (antibody, human IgG1, kappa)
heavy 1: not shown
heavy 2: not shown
light: DIVMTQSPLSLPVTPGEPASISCQASESLVHSNRNTYLHWYLQKPGQSPQLLIYKVSNRFSGVPDRFSGSGSGTDFTLKISRVEAEDVGVYYCSQNTHVPPTFGQGTKVEIERTVAAPSVFIFPPSDEQLKSGTASVVCLLNNFYPREAKVQWKVDNALQSGNSQESVTEQDSKDSTYSLSSTLTLSKADYEKHKVYACEVTHQGLSSPVTKSFNRGEC
notes: as for B1
B4: GpH7-A5/GpH7-B3 variant P271_09D/GpL16-k0 (antibody, human IgG1, kappa)
heavy 1: not shown
heavy 2: not shown
light: DIVMTQSPLSLPVTPGEPASISCQASESLVHSNRNTYLHWYLQKPGQSPQLLIYKVSNRFSGVPDRFSGSGSGTDFTLKISRVEAEDVGVYYCSQNTHVPPTFGQGTKVEIERTVAAPSVFIFPPSDEQLKSGTASVVCLLNNFYPREAKVQWKVDNALQSGNSQESVTEQDSKDSTYSLSSTLTLSKADYEKHKVYACEVTHQGLSSPVTKSFNRGEC
notes: as for B1
B5: GpH7-A5/GpH7-B3 variant P271_14T/GpL16-k0 (antibody, human IgG1, kappa)
heavy 1: not shown
heavy 2: not shown
light: DIVMTQSPLSLPVTPGEPASISCQASESLVHSNRNTYLHWYLQKPGQSPQLLIYKVSNRFSGVPDRFSGSGSGTDFTLKISRVEAEDVGVYYCSQNTHVPPTFGQGTKVEIERTVAAPSVFIFPPSDEQLKSGTASVVCLLNNFYPREAKVQWKVDNALQSGNSQESVTEQDSKDSTYSLSSTLTLSKADYEKHKVYACEVTHQGLSSPVTKSFNRGEC
notes: as for B1
B6: GpH7-A5/GpH7-B3 variant S298_08L/GpL16-k0 (antibody, human IgG1, kappa)
heavy 1: not shown
heavy 2: not shown
light: DIVMTQSPLSLPVTPGEPASISCQASESLVHSNRNTYLHWYLQKPGQSPQLLIYKVSNRFSGVPDRFSGSGSGTDFTLKISRVEAEDVGVYYCSQNTHVPPTFGQGTKVEIERTVAAPSVFIFPPSDEQLKSGTASVVCLLNNFYPREAKVQWKVDNALQSGNSQESVTEQDSKDSTYSLSSTLTLSKADYEKHKVYACEVTHQGLSSPVTKSFNRGEC
notes: as for B1
B7: GpH7-A5/GpH7-B3 variant S324_05P/GpL16-k0 (antibody, human IgG1, kappa)
heavy 1: not shown
heavy 2: not shown
light: DIVMTQSPLSLPVTPGEPASISCQASESLVHSNRNTYLHWYLQKPGQSPQLLIYKVSNRFSGVPDRFSGSGSGTDFTLKISRVEAEDVGVYYCSQNTHVPPTFGQGTKVEIERTVAAPSVFIFPPSDEQLKSGTASVVCLLNNFYPREAKVQWKVDNALQSGNSQESVTEQDSKDSTYSLSSTLTLSKADYEKHKVYACEVTHQGLSSPVTKSFNRGEC
notes: as for B1
B8: GpH7-A5/GpH7-B3 variant Y296_01G/GpL16-k0 (antibody, human IgG1, kappa)
heavy 1: not shown
heavy 2: not shown
light: DIVMTQSPLSLPVTPGEPASISCQASESLVHSNRNTYLHWYLQKPGQSPQLLIYKVSNRFSGVPDRFSGSGSGTDFTLKISRVEAEDVGVYYCSQNTHVPPTFGQGTKVEIERTVAAPSVFIFPPSDEQLKSGTASVVCLLNNFYPREAKVQWKVDNALQSGNSQESVTEQDSKDSTYSLSSTLTLSKADYEKHKVYACEVTHQGLSSPVTKSFNRGEC
notes: as for B1
B9: GpH7-A5/GpH7-B3 variant Y296_11K/GpL16-k0 (antibody, human IgG1, kappa)
heavy 1: not shown
heavy 2: not shown
light: DIVMTQSPLSLPVTPGEPASISCQASESLVHSNRNTYLHWYLQKPGQSPQLLIYKVSNRFSGVPDRFSGSGSGTDFTLKISRVEAEDVGVYYCSQNTHVPPTFGQGTKVEIERTVAAPSVFIFPPSDEQLKSGTASVVCLLNNFYPREAKVQWKVDNALQSGNSQESVTEQDSKDSTYSLSSTLTLSKADYEKHKVYACEVTHQGLSSPVTKSFNRGEC
notes: as for B1
B10: GpH7-A5/GpH7-B3 variant Y296_13S/GpL16-k0 (antibody, human IgG1, kappa)
heavy 1: not shown
heavy 2: not shown
light: DIVMTQSPLSLPVTPGEPASISCQASESLVHSNRNTYLHWYLQKPGQSPQLLIYKVSNRFSGVPDRFSGSGSGTDFTLKISRVEAEDVGVYYCSQNTHVPPTFGQGTKVEIERTVAAPSVFIFPPSDEQLKSGTASVVCLLNNFYPREAKVQWKVDNALQSGNSQESVTEQDSKDSTYSLSSTLTLSKADYEKHKVYACEVTHQGLSSPVTKSFNRGEC
notes: as for B1
B11: GpH7-A5/GpH7-B3 variant Y296_14T/GpL16-k0 (antibody, human IgG1, kappa)
heavy 1: not shown
heavy 2: not shown
light: DIVMTQSPLSLPVTPGEPASISCQASESLVHSNRNTYLHWYLQKPGQSPQLLIYKVSNRFSGVPDRFSGSGSGTDFTLKISRVEAEDVGVYYCSQNTHVPPTFGQGTKVEIERTVAAPSVFIFPPSDEQLKSGTASVVCLLNNFYPREAKVQWKVDNALQSGNSQESVTEQDSKDSTYSLSSTLTLSKADYEKHKVYACEVTHQGLSSPVTKSFNRGEC
notes: as for B1
B12: GpH7-A5/GpH7-B3 variant Y296_16H/GpL16-k0 (antibody, human IgG1, kappa)
heavy 1: not shown
heavy 2: not shown
light: DIVMTQSPLSLPVTPGEPASISCQASESLVHSNRNTYLHWYLQKPGQSPQLLIYKVSNRFSGVPDRFSGSGSGTDFTLKISRVEAEDVGVYYCSQNTHVPPTFGQGTKVEIERTVAAPSVFIFPPSDEQLKSGTASVVCLLNNFYPREAKVQWKVDNALQSGNSQESVTEQDSKDSTYSLSSTLTLSKADYEKHKVYACEVTHQGLSSPVTKSFNRGEC
notes: as for B1
B13: GpH7-A5/GpH7-B3 variant Y296_18N/GpL16-k0 (antibody, human IgG1, kappa)
heavy 1: not shown
heavy 2: not shown
light: DIVMTQSPLSLPVTPGEPASISCQASESLVHSNRNTYLHWYLQKPGQSPQLLIYKVSNRFSGVPDRFSGSGSGTDFTLKISRVEAEDVGVYYCSQNTHVPPTFGQGTKVEIERTVAAPSVFIFPPSDEQLKSGTASVVCLLNNFYPREAKVQWKVDNALQSGNSQESVTEQDSKDSTYSLSSTLTLSKADYEKHKVYACEVTHQGLSSPVTKSFNRGEC
notes: as for B1
B14: GpH7-A5/GpH7-B3 variant Y300_10E/GpL16-k0 (antibody, human IgG1, kappa)
heavy 1: not shown
heavy 2: not shown
light: DIVMTQSPLSLPVTPGEPASISCQASESLVHSNRNTYLHWYLQKPGQSPQLLIYKVSNRFSGVPDRFSGSGSGTDFTLKISRVEAEDVGVYYCSQNTHVPPTFGQGTKVEIERTVAAPSVFIFPPSDEQLKSGTASVVCLLNNFYPREAKVQWKVDNALQSGNSQESVTEQDSKDSTYSLSSTLTLSKADYEKHKVYACEVTHQGLSSPVTKSFNRGEC
notes: as for B1

What was measured:
[1] = target: T1, FcγRIIIa extracellular domain with C-terminal His tag (human, UniProt P08637 17-208); assay: SPR (Biacore), relative binding
T1 construct: extracellular domain; also called FcgRIIIa; 3a; not shown: His tag attached to the C terminus
Method: (§1) Analysis of interaction between objective antibody and the FcγR was carried out using Biacore T100 (GE Healthcare). HBS-EP+ (GE Healthcare) was used as the running buffer, and the measurement temperature was set to 25° C. Chips produced by immobilizing the antigen peptide by the amine coupling method to a Series S Sencor Chip CM5 (GE Healthcare), or alternatively, chips produced by allowing preliminarily biotinylated antigen peptides to interact with and immobilize onto a Series S Sensor Chip SA (certified) (GE Healthcare) were used. Antibodies of interest were captured onto an antigen peptide-immobilized chip, and allowed to interact to each FcγR diluted with running buffer. To regenerate and repeatedly use the chip, the antibodies captured on the chip were washed off by reacting 10 mM glycine-HCl, pH 1.5.
(§2) The FcγR-binding activity of each antibody was assessed primarily using as an indicator the FcγR-binding activity and dissociation constant for FcγR.

[2] = target: T2, FcγRIIb extracellular domain with C-terminal His tag (human, UniProt P31994 43-217); assay: SPR (Biacore), relative binding
T2 construct: extracellular domain; also called FcgRIIb; 2b; not shown: His tag attached to the C terminus
T2 sequence (looked up): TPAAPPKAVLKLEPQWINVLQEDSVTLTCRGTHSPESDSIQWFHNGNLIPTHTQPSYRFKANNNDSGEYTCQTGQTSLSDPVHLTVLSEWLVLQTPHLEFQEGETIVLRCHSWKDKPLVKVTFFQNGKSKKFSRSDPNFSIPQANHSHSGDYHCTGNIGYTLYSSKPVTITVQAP
Method: as §1, §2

[3] = target: T1, FcγRIIIa extracellular domain with …; assay: SPR (Biacore); He/Con_3a divided by He/Con_2b (reference: binding to FcγRIIb)
Method: as §1, §2

T1 sequence (P08637 17-208): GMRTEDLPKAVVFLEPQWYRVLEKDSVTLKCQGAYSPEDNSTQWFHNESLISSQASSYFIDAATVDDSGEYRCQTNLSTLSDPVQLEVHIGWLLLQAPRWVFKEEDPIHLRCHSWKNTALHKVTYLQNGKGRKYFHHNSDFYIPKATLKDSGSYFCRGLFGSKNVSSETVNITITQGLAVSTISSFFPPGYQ

| Binder | He/Con_3a (IIIa binding) [1] | He/Con_2b (IIb binding) [2] | He_3a/2b (IIIa/IIb) [3] [ratio] |
| --- | --- | --- | --- |
| B1 | 29.5 % of GpH7-A5/GpH7-B3/GpL16-k0 (=100) | 99.5 % of GpH7-A5/GpH7-B3/GpL16-k0 (=100) | 0.3 |
| B2 | 31.6 % of GpH7-A5/GpH7-B3/GpL16-k0 (=100) | 69.1 % of GpH7-A5/GpH7-B3/GpL16-k0 (=100) | 0.46 |
| B3 | 32.8 % of GpH7-A5/GpH7-B3/GpL16-k0 (=100) | 169 % of GpH7-A5/GpH7-B3/GpL16-k0 (=100) | 0.19 |
| B4 | 93.1 % of GpH7-A5/GpH7-B3/GpL16-k0 (=100) | 120 % of GpH7-A5/GpH7-B3/GpL16-k0 (=100) | 0.77 |
| B5 | 56.4 % of GpH7-A5/GpH7-B3/GpL16-k0 (=100) | 95.4 % of GpH7-A5/GpH7-B3/GpL16-k0 (=100) | 0.59 |
| B6 | 73.5 % of GpH7-A5/GpH7-B3/GpL16-k0 (=100) | 108 % of GpH7-A5/GpH7-B3/GpL16-k0 (=100) | 0.68 |
| B7 | 65.5 % of GpH7-A5/GpH7-B3/GpL16-k0 (=100) | 94.7 % of GpH7-A5/GpH7-B3/GpL16-k0 (=100) | 0.69 |
| B8 | 54.5 % of GpH7-A5/GpH7-B3/GpL16-k0 (=100) | 79.3 % of GpH7-A5/GpH7-B3/GpL16-k0 (=100) | 0.69 |
| B9 | 56.7 % of GpH7-A5/GpH7-B3/GpL16-k0 (=100) | 72.8 % of GpH7-A5/GpH7-B3/GpL16-k0 (=100) | 0.78 |
| B10 | 61.8 % of GpH7-A5/GpH7-B3/GpL16-k0 (=100) | 86.3 % of GpH7-A5/GpH7-B3/GpL16-k0 (=100) | 0.72 |
| B11 | 64.5 % of GpH7-A5/GpH7-B3/GpL16-k0 (=100) | 88.2 % of GpH7-A5/GpH7-B3/GpL16-k0 (=100) | 0.73 |
| B12 | 73.4 % of GpH7-A5/GpH7-B3/GpL16-k0 (=100) | 92.2 % of GpH7-A5/GpH7-B3/GpL16-k0 (=100) | 0.8 |
| B13 | 72.1 % of GpH7-A5/GpH7-B3/GpL16-k0 (=100) | 91.5 % of GpH7-A5/GpH7-B3/GpL16-k0 (=100) | 0.79 |
| B14 | 104 % of GpH7-A5/GpH7-B3/GpL16-k0 (=100) | 134 % of GpH7-A5/GpH7-B3/GpL16-k0 (=100) | 0.78 |
